Data taken from patent publication US20260070987A1.

Molecular target: equine FcRn (large alpha subunit p51) / equine beta-2-microglobulin complex, biotinylated (equine) (UniProt P30441)
Experiment: SPR (Biacore), pH 6

Sequence of UniProt P30441 (P30441 21-118, one chain of several): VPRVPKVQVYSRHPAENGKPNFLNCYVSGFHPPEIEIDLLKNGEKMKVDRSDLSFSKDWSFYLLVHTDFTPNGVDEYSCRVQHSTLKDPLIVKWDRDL

B1: equine IgG4 N434R (antibody, part only; not given: variable domains, not shown: another chain or arm of the molecule)
constant: ASTTAPKVFPLASHSAATSGSTVALGCLVSSYFPEPVTVSWNSGALTSGVHTFPSVLQSSGLYSLSSMVTVPASSLKSQTYICNVAHPASSTKVDKKIVIKECNGGCPAECLQVGPSVFIFPPKPKDVLMISRTPTVTCVVVDVGHDFPDVQFNWYVDGVETHTATTEPKQEQFNSTYRVVSVLPIQHKDWLSGKEFKCKVNNKALPAPVERTISKPTGQPREPQVYVLAPHRDELSKNKVSVTCLVKDFYPTDIDIEWKSNGQPEPETKYSTTPAQLDSDGSYFLYSKLTVETNRWQQGTTFTCAVMHEALHRHYTEKSVSKSPGK
Kd: 22.7 nM

B2: equine IgG4 N434S (antibody, part only; not given: variable domains, not shown: another chain or arm of the molecule)
constant: ASTTAPKVFPLASHSAATSGSTVALGCLVSSYFPEPVTVSWNSGALTSGVHTFPSVLQSSGLYSLSSMVTVPASSLKSQTYICNVAHPASSTKVDKKIVIKECNGGCPAECLQVGPSVFIFPPKPKDVLMISRTPTVTCVVVDVGHDFPDVQFNWYVDGVETHTATTEPKQEQFNSTYRVVSVLPIQHKDWLSGKEFKCKVNNKALPAPVERTISKPTGQPREPQVYVLAPHRDELSKNKVSVTCLVKDFYPTDIDIEWKSNGQPEPETKYSTTPAQLDSDGSYFLYSKLTVETNRWQQGTTFTCAVMHEALHSHYTEKSVSKSPGK
Kd: 23.8 nM

B3: equine IgG4 N434T (antibody, part only; not given: variable domains, not shown: another chain or arm of the molecule)
constant: ASTTAPKVFPLASHSAATSGSTVALGCLVSSYFPEPVTVSWNSGALTSGVHTFPSVLQSSGLYSLSSMVTVPASSLKSQTYICNVAHPASSTKVDKKIVIKECNGGCPAECLQVGPSVFIFPPKPKDVLMISRTPTVTCVVVDVGHDFPDVQFNWYVDGVETHTATTEPKQEQFNSTYRVVSVLPIQHKDWLSGKEFKCKVNNKALPAPVERTISKPTGQPREPQVYVLAPHRDELSKNKVSVTCLVKDFYPTDIDIEWKSNGQPEPETKYSTTPAQLDSDGSYFLYSKLTVETNRWQQGTTFTCAVMHEALHTHYTEKSVSKSPGK
Kd: 57.5 nM

B4: equine IgG4 N434V (antibody, part only; not given: Variable domains, not shown: another chain or arm of the molecule)
constant: ASTTAPKVFPLASHSAATSGSTVALGCLVSSYFPEPVTVSWNSGALTSGVHTFPSVLQSSGLYSLSSMVTVPASSLKSQTYICNVAHPASSTKVDKKIVIKECNGGCPAECLQVGPSVFIFPPKPKDVLMISRTPTVTCVVVDVGHDFPDVQFNWYVDGVETHTATTEPKQEQFNSTYRVVSVLPIQHKDWLSGKEFKCKVNNKALPAPVERTISKPTGQPREPQVYVLAPHRDELSKNKVSVTCLVKDFYPTDIDIEWKSNGQPEPETKYSTTPAQLDSDGSYFLYSKLTVETNRWQQGTTFTCAVMHEALHVHYTEKSVSKSPGK
Kd: 32.6 nM

B5: equine IgG4 N434W (antibody, part only; not given: variable domains, not shown: another chain or arm of the molecule)
constant: ASTTAPKVFPLASHSAATSGSTVALGCLVSSYFPEPVTVSWNSGALTSGVHTFPSVLQSSGLYSLSSMVTVPASSLKSQTYICNVAHPASSTKVDKKIVIKECNGGCPAECLQVGPSVFIFPPKPKDVLMISRTPTVTCVVVDVGHDFPDVQFNWYVDGVETHTATTEPKQEQFNSTYRVVSVLPIQHKDWLSGKEFKCKVNNKALPAPVERTISKPTGQPREPQVYVLAPHRDELSKNKVSVTCLVKDFYPTDIDIEWKSNGQPEPETKYSTTPAQLDSDGSYFLYSKLTVETNRWQQGTTFTCAVMHEALHWHYTEKSVSKSPGK
Kd: 1.6 nM

B6: equine IgG4 N434Y (antibody, part only; not given: variable domains, not shown: another chain or arm of the molecule)
constant: ASTTAPKVFPLASHSAATSGSTVALGCLVSSYFPEPVTVSWNSGALTSGVHTFPSVLQSSGLYSLSSMVTVPASSLKSQTYICNVAHPASSTKVDKKIVIKECNGGCPAECLQVGPSVFIFPPKPKDVLMISRTPTVTCVVVDVGHDFPDVQFNWYVDGVETHTATTEPKQEQFNSTYRVVSVLPIQHKDWLSGKEFKCKVNNKALPAPVERTISKPTGQPREPQVYVLAPHRDELSKNKVSVTCLVKDFYPTDIDIEWKSNGQPEPETKYSTTPAQLDSDGSYFLYSKLTVETNRWQQGTTFTCAVMHEALHYHYTEKSVSKSPGK
Kd: 4.6 nM

B7: equine IgG4 D312A (antibody, part only; not given: variable domains, not shown: another chain or arm of the molecule)
constant: ASTTAPKVFPLASHSAATSGSTVALGCLVSSYFPEPVTVSWNSGALTSGVHTFPSVLQSSGLYSLSSMVTVPASSLKSQTYICNVAHPASSTKVDKKIVIKECNGGCPAECLQVGPSVFIFPPKPKDVLMISRTPTVTCVVVDVGHDFPDVQFNWYVDGVETHTATTEPKQEQFNSTYRVVSVLPIQHKAWLSGKEFKCKVNNKALPAPVERTISKPTGQPREPQVYVLAPHRDELSKNKVSVTCLVKDFYPTDIDIEWKSNGQPEPETKYSTTPAQLDSDGSYFLYSKLTVETNRWQQGTTFTCAVMHEALHNHYTEKSVSKSPGK
Kd: 13.1 nM

B8: equine IgG1 T286R (antibody, part only; not given: variable domains, not shown: another chain or arm of the molecule)
constant: ASTTAPKVFALAPGCGTTSDSTVALGCLVSGYFPEPVKVSWNSGSLTSGVHTFPSVLQSSGFYSLSSMVTVPASTWTSETYICNVVHAASNFKVDKRIEPIPDNHQKVCDMSKCPKCPAPELLGGPSVFIFPPNPKDTLMITRTPEVTCVVVDVSQENPDVKFNWYMDGVEVRRATTRPKEEQFNSTYRVVSVLRIQHQDWLSGKEFKCKVNNQALPQPIERTITKTKGRSQEPQVYVLAPHPDELSKSKVSVTCLVKDFYPPEINIEWQSNGQPELETKYSTTQAQQDSDGSYFLYSKLSVDRNRWQQGTTFTCGVMHEALHNHYTQKNVSKNPGK
Kd: 20.5 nM

B9: equine IgG4 D312C (antibody, part only; not given: variable domains, not shown: another chain or arm of the molecule)
constant: ASTTAPKVFPLASHSAATSGSTVALGCLVSSYFPEPVTVSWNSGALTSGVHTFPSVLQSSGLYSLSSMVTVPASSLKSQTYICNVAHPASSTKVDKKIVIKECNGGCPAECLQVGPSVFIFPPKPKDVLMISRTPTVTCVVVDVGHDFPDVQFNWYVDGVETHTATTEPKQEQFNSTYRVVSVLPIQHKCWLSGKEFKCKVNNKALPAPVERTISKPTGQPREPQVYVLAPHRDELSKNKVSVTCLVKDFYPTDIDIEWKSNGQPEPETKYSTTPAQLDSDGSYFLYSKLTVETNRWQQGTTFTCAVMHEALHNHYTEKSVSKSPGK
Kd: 27.1 nM

B10: equine IgG4 D312E (antibody, part only; not given: variable domains, not shown: another chain or arm of the molecule)
constant: ASTTAPKVFPLASHSAATSGSTVALGCLVSSYFPEPVTVSWNSGALTSGVHTFPSVLQSSGLYSLSSMVTVPASSLKSQTYICNVAHPASSTKVDKKIVIKECNGGCPAECLQVGPSVFIFPPKPKDVLMISRTPTVTCVVVDVGHDFPDVQFNWYVDGVETHTATTEPKQEQFNSTYRVVSVLPIQHKEWLSGKEFKCKVNNKALPAPVERTISKPTGQPREPQVYVLAPHRDELSKNKVSVTCLVKDFYPTDIDIEWKSNGQPEPETKYSTTPAQLDSDGSYFLYSKLTVETNRWQQGTTFTCAVMHEALHNHYTEKSVSKSPGK
Kd: 50.2 nM

B11: equine IgG4 D312F (antibody, part only; not given: variable domains, not shown: another chain or arm of the molecule)
constant: ASTTAPKVFPLASHSAATSGSTVALGCLVSSYFPEPVTVSWNSGALTSGVHTFPSVLQSSGLYSLSSMVTVPASSLKSQTYICNVAHPASSTKVDKKIVIKECNGGCPAECLQVGPSVFIFPPKPKDVLMISRTPTVTCVVVDVGHDFPDVQFNWYVDGVETHTATTEPKQEQFNSTYRVVSVLPIQHKFWLSGKEFKCKVNNKALPAPVERTISKPTGQPREPQVYVLAPHRDELSKNKVSVTCLVKDFYPTDIDIEWKSNGQPEPETKYSTTPAQLDSDGSYFLYSKLTVETNRWQQGTTFTCAVMHEALHNHYTEKSVSKSPGK
Kd: 23 nM

B12: equine IgG4 D312G (antibody, part only; not given: variable domains, not shown: another chain or arm of the molecule)
constant: ASTTAPKVFPLASHSAATSGSTVALGCLVSSYFPEPVTVSWNSGALTSGVHTFPSVLQSSGLYSLSSMVTVPASSLKSQTYICNVAHPASSTKVDKKIVIKECNGGCPAECLQVGPSVFIFPPKPKDVLMISRTPTVTCVVVDVGHDFPDVQFNWYVDGVETHTATTEPKQEQFNSTYRVVSVLPIQHKGWLSGKEFKCKVNNKALPAPVERTISKPTGQPREPQVYVLAPHRDELSKNKVSVTCLVKDFYPTDIDIEWKSNGQPEPETKYSTTPAQLDSDGSYFLYSKLTVETNRWQQGTTFTCAVMHEALHNHYTEKSVSKSPGK
Kd: 11.2 nM

B13: equine IgG4 D312H (antibody, part only; not given: Variable domains, not shown: another chain or arm of the molecule)
constant: ASTTAPKVFPLASHSAATSGSTVALGCLVSSYFPEPVTVSWNSGALTSGVHTFPSVLQSSGLYSLSSMVTVPASSLKSQTYICNVAHPASSTKVDKKIVIKECNGGCPAECLQVGPSVFIFPPKPKDVLMISRTPTVTCVVVDVGHDFPDVQFNWYVDGVETHTATTEPKQEQFNSTYRVVSVLPIQHKHWLSGKEFKCKVNNKALPAPVERTISKPTGQPREPQVYVLAPHRDELSKNKVSVTCLVKDFYPTDIDIEWKSNGQPEPETKYSTTPAQLDSDGSYFLYSKLTVETNRWQQGTTFTCAVMHEALHNHYTEKSVSKSPGK
Kd: 20.2 nM

B14: equine IgG4 D312I (antibody, part only; not given: Variable domains, not shown: another chain or arm of the molecule)
constant: ASTTAPKVFPLASHSAATSGSTVALGCLVSSYFPEPVTVSWNSGALTSGVHTFPSVLQSSGLYSLSSMVTVPASSLKSQTYICNVAHPASSTKVDKKIVIKECNGGCPAECLQVGPSVFIFPPKPKDVLMISRTPTVTCVVVDVGHDFPDVQFNWYVDGVETHTATTEPKQEQFNSTYRVVSVLPIQHKIWLSGKEFKCKVNNKALPAPVERTISKPTGQPREPQVYVLAPHRDELSKNKVSVTCLVKDFYPTDIDIEWKSNGQPEPETKYSTTPAQLDSDGSYFLYSKLTVETNRWQQGTTFTCAVMHEALHNHYTEKSVSKSPGK
Kd: 29.4 nM

B15: equine IgG4 D312K (antibody, part only; not given: variable domains, not shown: another chain or arm of the molecule)
constant: ASTTAPKVFPLASHSAATSGSTVALGCLVSSYFPEPVTVSWNSGALTSGVHTFPSVLQSSGLYSLSSMVTVPASSLKSQTYICNVAHPASSTKVDKKIVIKECNGGCPAECLQVGPSVFIFPPKPKDVLMISRTPTVTCVVVDVGHDFPDVQFNWYVDGVETHTATTEPKQEQFNSTYRVVSVLPIQHKKWLSGKEFKCKVNNKALPAPVERTISKPTGQPREPQVYVLAPHRDELSKNKVSVTCLVKDFYPTDIDIEWKSNGQPEPETKYSTTPAQLDSDGSYFLYSKLTVETNRWQQGTTFTCAVMHEALHNHYTEKSVSKSPGK
Kd: 13.6 nM

B16: equine IgG4 D312L (antibody, part only; not given: variable domains, not shown: another chain or arm of the molecule)
constant: ASTTAPKVFPLASHSAATSGSTVALGCLVSSYFPEPVTVSWNSGALTSGVHTFPSVLQSSGLYSLSSMVTVPASSLKSQTYICNVAHPASSTKVDKKIVIKECNGGCPAECLQVGPSVFIFPPKPKDVLMISRTPTVTCVVVDVGHDFPDVQFNWYVDGVETHTATTEPKQEQFNSTYRVVSVLPIQHKLWLSGKEFKCKVNNKALPAPVERTISKPTGQPREPQVYVLAPHRDELSKNKVSVTCLVKDFYPTDIDIEWKSNGQPEPETKYSTTPAQLDSDGSYFLYSKLTVETNRWQQGTTFTCAVMHEALHNHYTEKSVSKSPGK
Kd: 11.6 nM
